Experimental data from patent US10556936B2, “Immunogenic proteins and fragments thereof from allergenic mites” (ALK-ABELLÓ A/S, priority 2016, dated 2020).

Key:
Type in all cases: cell-based, human
[1] = system: basophils in whole blood from HDM allergic donors; assay: Basophil Activation Test (BAT); details: blood from HDM allergic individuals (n=14)
Protocol: Basophil Activation Test (BAT) was used as a predictive in vitro assay for indication of safety/immediate hypersensitivity reactions. The BAT assay is a widely used diagnostic test that is also used for evaluation of allergenicity of allergen derived components. In short: whole blood from HDM allergic donors was stimulated for 1 h with the proteins, and the increased expression of activation markers on the surface of basophils were measured by flow cytometry. The BAT test was carried out using different concentrations of the proteins and the allergens Der p 2 and Der p 1 was used as controls and tested in the same concentration rates.
(§1) This example relates to the further testing of immunogenicity of the proteins identified in Example 1. Their ability to react with IgE antibodies in HDM allergic individuals, to stimulate in vitro T cell proliferation of HDM allergic individuals and non-allergics, and to stimulate ex vivo cytokine production of HDM allergic individuals and non-allergics. The following tests were used: • Basophil Activation Test (BAT) was used as a predictive in vitro assay for indication of safety/immediate hypersensitivity reactions. BAT test was carried out using blood from HDM allergic individuals (n=14), and by use of different concentrations of test proteins or the major house dust mite allergens (Der p 1, Der f 1, Der p 2 or Der f 2, e.g. a concentration of 1, 10, 100 or 1000 ng/ml. • In vitro T cell reactivity determined in T cell lines obtained from HDM allergic individuals (n=30) and non-allergics (n=8): Determined by establishment of HDM specific T-cell lines according to standard methods. In short, PMBCs from HDM allergic donors were cultured for 3 weeks in the presence of house dust mite allergen extract. The responses to proteins at a concentration of 0.5 ug/ml or 2 ug/ml of the test protein or the major house dust mite allergens (Der p 1, Der f 1, Der p 2 or Der f 2) were assessed by proliferation in a standard 72 h T cell proliferation assay, as described in Henmar H et al., Clin Exp Immunol 2008; 153(3):316-23. […]. • Ex vivo stimulation of PBMC cells obtained from mite allergic patients (n=16) and non-allergics (n=6): Determined by measuring the production of the cytokines; IFN-gamma, IL-9, IL-10, IL-17 and IL-31 following stimulation with test protein in concentration up to 10 ug/ml. Freshly isolated PBMC 5×10^6/ml were cultured with a test protein for 5 days and cell supernatant were harvested and stored at −80° C. Cytokines of the supernatants were measured using ProcartaPlex Multiplex Immunoassays with MAGPIX Multiplex Reader according manufactory protocol.

[2] = system: PBMC cells obtained from mite allergic patients and non-allergics; assay: Ex vivo stimulation of PBMC: cytokine production (IFN-gamma, IL-9, IL-10, IL-17, IL-31)
Excerpt: as §1

[3] = system: T cell lines obtained from HDM allergic individuals and non-allergics; assay: In vitro T cell proliferation test in T cell lines (Example 3); details: 0.5 or 2 ug/ml, 72 h; for % responders of in-vitro T cell proliferation test, Allergic: T cell lines from HDM allergic individuals (n=30); for % responders of in-vitro T cell proliferation test, Non-allergics: T cell lines from non-allergics (n=8)
Excerpt: as §1

Row | Molecule | # of individuals of 14 with positive BAT test ([1]; 1 ng/ml) | # of individuals of 14 with positive BAT test ([1]; 10 ng/ml) | # of individuals of 14 with positive BAT test ([1]; 100 ng/ml) | # of individuals of 14 with positive BAT test ([1]; 1000 ng/ml) | % HDM allergic individuals with cytokine production in ex-vivo T cell assay IL-5 [2] | % HDM allergic individuals with cytokine production in ex-vivo T cell assay IL-9 [2] | % HDM allergic individuals with cytokine production in ex-vivo T cell assay IL-10 [2] | % HDM allergic individuals with cytokine production in ex-vivo T cell assay IL-13 [2] | % HDM allergic individuals with cytokine production in ex-vivo T cell assay IL-17 [2] | % HDM allergic individuals with cytokine production in ex-vivo T cell assay IL-31 [2] | % HDM allergic individuals with cytokine production in ex-vivo T cell assay INF-g [2] | % non-allergic individuals with cytokine production in ex-vivo T cell assay IL-5 [2] | % non-allergic individuals with cytokine production in ex-vivo T cell assay IL-9 [2] | % non-allergic individuals with cytokine production in ex-vivo T cell assay IL-10 [2] | % non-allergic individuals with cytokine production in ex-vivo T cell assay IL-13 [2] | % non-allergic individuals with cytokine production in ex-vivo T cell assay IL-17 [2] | % non-allergic individuals with cytokine production in ex-vivo T cell assay IL-31 [2] | % non-allergic individuals with cytokine production in ex-vivo T cell assay INF-g [2] | % responders of in-vitro T cell proliferation test, Allergic [3] | % responders of in-vitro T cell proliferation test, Non-allergics [3]
1 | A019: house dust mite protein; SEQ ID NO: 1 (Der f), 4 (Der p), 315 (Blo t) (protein) QVYCNGAAIVSAARSQIGVPYSWGGGGIHGKSRGIGEGANTVGFDCSGLAQYSVYQGTHKVLARVASGQYSDPKCHHVAYGSHQPGDLVFFGNPIHHVGIVSAHGRMINAPHTGTNVREENIWSDHIANVARCW | 2 | 2 | 2 | 4 | 38% | 56% | 75% | 56% | 100% | 13% | 50% | 0% | 0% | 100% | 0% | 100% | 17% | 100% | 39% | 13%
2 | A020: house dust mite protein; SEQ ID NO: 15 (Der f), 16 (Der p); Blo t SEQ ID NO: 316 printed as A0019 (protein) MSKPIFYYHPFSGPCRTVSTVAKILNVDMEMKKLDLLTKEHLNPEFLKVNPFHKVPTFVDSDGFVVDESRVIAMYLVESRKPDSFLYPKNDLKKRIQIDRWLHYDINLSTTISAPMFCVFRGHQVQDYQVEQGKETLKTLDGVMQSFEGKFLTGADQFTLADIAMYFSLNTMEVYPKYFKFDDYPNLKSWYHRVAEALKQYDTEGTIPKAIETMKQFIQQRAAEAEKH | 0 | 1 | 1 | 1 | 6% | 0% | 25% | 6% | 6% | 0% | 0% | 0% | 0% | 0% | 0% | 0% | 0% | 17% | 18% | 25%
3 | A017: house dust mite protein; SEQ ID NO: 21 (Der f), 25 (Der p), 313 (Blo t) (protein) MSSSSGKKYDFSGKVALVTGSSSGIGAAIALQFAQYGAQVTITGRDAAALESVAKRIEAESGHQPLQIVGNLLDQSLPAKLIDGTISKYGRLDFLVNNAGFSTQHRDIHDEKLMEAFDQVYGLNVRAVVQLSQLAATHLEKSKGNIINISSNLSMMPVHIIYSSSKAALDMITKTMAMEFGKKGVRVNSINPGPVATQFMRSLGMPVTFLKENEEFVKELTLLKFVAQPVEIANLASFLASDDARNMTGSIVVNDTGSLLAPRVDFKKLDEIKKK | 0 | 0 | 0 | 0 | 0% | 0% | 25% | 0% | 13% | 0% | 6% | 0% | 0% | 33% | 0% | 17% | 0% | 0% | 7% | 0%
4 | A018: house dust mite protein; SEQ ID NO: 5 (Der f), 6 (Der p), 314 (Blo t) (protein) MVKAVVVLKGDPNVSGTIFFEQQDNGPVKVTGSVQGLKPGLHGFHVHEFGDNTNGCTSAGAHYNPLNKTHGAPNDEERHVGDLGNIEANDKGVANVVIEDSLISLTGEKSIVGRSLVVHADPDDLGRGGHELSKTTGNAGGRLVCGVIGVTK | 0 | 0 | 0 | 0 | 0% | 6% | 56% | 13% | 44% | 6% | 19% | 0% | 0% | 67% | 17% | 83% | 0% | 33% | 0% | 0%
